Patent US20090181459A1 (published 2009)

T1: mouse glucocorticoid-induced tumor necrosis factor receptor (mGITR), expressed on the cell surface (mouse, UniProt O35714 20-228)
T1 sequence (looked up): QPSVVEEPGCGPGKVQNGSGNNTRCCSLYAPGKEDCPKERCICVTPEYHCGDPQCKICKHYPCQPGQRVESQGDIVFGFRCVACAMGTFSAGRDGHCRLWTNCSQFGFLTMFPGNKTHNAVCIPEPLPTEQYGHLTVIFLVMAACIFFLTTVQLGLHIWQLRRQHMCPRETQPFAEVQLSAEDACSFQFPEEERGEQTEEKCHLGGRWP


Assays:
[1] = target: mouse glucocorticoid-induced tumor necrosis factor receptor (mGITR), expressed on the cell surface (mouse) (UniProt O35714); assay: flow cytometry on Th1 clone R2.2; isotype control background
[2] = target: mouse glucocorticoid-induced tumor necrosis factor receptor (mGITR), expressed on the cell surface (mouse) (UniProt O35714); assay: flow cytometry on Th2 clone R2.4; isotype control background
[3] = target: mouse glucocorticoid-induced TNF receptor ligand (mGITRL), expressed on the cell surface (mouse) (UniProt Q7TS55); assay: flow cytometry, peritoneal cells gated on F4/80+; isotype control background
[4] = target: mouse glucocorticoid-induced TNF receptor ligand (mGITRL), expressed on the cell surface (mouse) (UniProt Q7TS55); assay: flow cytometry, spleen cells gated on B220+ B cells; isotype control background
[5] = target: mouse glucocorticoid-induced TNF receptor ligand (mGITRL), expressed on the cell surface (mouse) (UniProt Q7TS55); assay: flow cytometry, spleen cells gated on F4/80+ macrophages; isotype control background
[6] = target: T1, mouse glucocorticoid-induced tumor …; assay: cell-based or functional assay

Row | MFI [3] | Median fluorescence intensity (MFI) [4] | Median fluorescence intensity (MFI) [5] | Molecule | Median fluorescence intensity (MFI) [1] | Median fluorescence intensity (MFI) [2] | Luciferase activity (NF-kB reporter plasmid), 48-h incubation [6]
1 | 255 | 7.7 | 25.4 | isotype control antibody (rat anti-canine CD8 antibody, IgG1) | 35.2 | 50.5 | –
2 | – | – | – | mouse glucocorticoid-induced TNF receptor ligand (mGITRL), expressed on the cell surface (ligand) MEEMPLRESSPQRAERCKKSWLLCIVALLLMLLCSLGTLIYTSLKPTAIESCMVKFELSSSKWHMTSPKPHCVNTTSDGKLKILQSGTYLIYGQVIPVDKKYIKDNAPFVVQIYKKNDVLQTLMNDFQILPIGGVYELHAGDNIYLKFNSKDHIQKNNTYWGIILMPDLPFIS | – | – | 6 fold
